This data set has as its target coagulation factor IXa (FIXa) (human, UniProt P00740;P00740 47-191;227-461). Put plainly: SPR. (In general: Surface plasmon resonance follows binding to a sensor surface in real time, without labels.)

Sequence of coagulation factor IXa (FIXa) (P00740 47-191, chain 1 of 2): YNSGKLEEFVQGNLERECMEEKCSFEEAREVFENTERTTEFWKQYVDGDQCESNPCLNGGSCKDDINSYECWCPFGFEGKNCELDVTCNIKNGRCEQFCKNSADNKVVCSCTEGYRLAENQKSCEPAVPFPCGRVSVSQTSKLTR
Sequence of coagulation factor IXa (FIXa) (P00740 227-461, chain 2 of 2): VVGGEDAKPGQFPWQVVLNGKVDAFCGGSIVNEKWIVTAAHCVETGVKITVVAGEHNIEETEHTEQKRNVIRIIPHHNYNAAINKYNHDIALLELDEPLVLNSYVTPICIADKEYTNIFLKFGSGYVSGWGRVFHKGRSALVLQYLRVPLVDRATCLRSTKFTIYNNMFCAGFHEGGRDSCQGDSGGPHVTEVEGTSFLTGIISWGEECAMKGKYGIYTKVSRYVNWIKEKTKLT

B1: RB006 (XNA)
RNA: GUGGACUAUACCGCGUAAUGCUGCCUCCAC
modifications: 5' 40 kDa branched mPEG; uppercase 2'-F, lowercase 2'-OMe in GUGGAcuAuAccGcGuAAuGcU(G)CcuCCAC; (G) unmodified; 3' inverted dT
On to B1, for which the binding result was “binds”.

Source of the values: article PMC6707742.
